Source: paper PMC9166294, “Patched 1 regulates Smoothened by controlling sterol binding to its extracellular cysteine-rich domain” (Science Advances, 2022)

Assays:
PTCH1 (Patched 1) = biological target: T1, PTCH1 (Patched 1) (Mus musculus, UniProt Q61115); assay: UV photocrosslinking in intact cells, immunoprecipitation and click-biotin detection; format: cell-based
T1 construct: full-length PTCH1-WT with C-terminal 1D4 tag
T1 sequence (Q61115 1-1434): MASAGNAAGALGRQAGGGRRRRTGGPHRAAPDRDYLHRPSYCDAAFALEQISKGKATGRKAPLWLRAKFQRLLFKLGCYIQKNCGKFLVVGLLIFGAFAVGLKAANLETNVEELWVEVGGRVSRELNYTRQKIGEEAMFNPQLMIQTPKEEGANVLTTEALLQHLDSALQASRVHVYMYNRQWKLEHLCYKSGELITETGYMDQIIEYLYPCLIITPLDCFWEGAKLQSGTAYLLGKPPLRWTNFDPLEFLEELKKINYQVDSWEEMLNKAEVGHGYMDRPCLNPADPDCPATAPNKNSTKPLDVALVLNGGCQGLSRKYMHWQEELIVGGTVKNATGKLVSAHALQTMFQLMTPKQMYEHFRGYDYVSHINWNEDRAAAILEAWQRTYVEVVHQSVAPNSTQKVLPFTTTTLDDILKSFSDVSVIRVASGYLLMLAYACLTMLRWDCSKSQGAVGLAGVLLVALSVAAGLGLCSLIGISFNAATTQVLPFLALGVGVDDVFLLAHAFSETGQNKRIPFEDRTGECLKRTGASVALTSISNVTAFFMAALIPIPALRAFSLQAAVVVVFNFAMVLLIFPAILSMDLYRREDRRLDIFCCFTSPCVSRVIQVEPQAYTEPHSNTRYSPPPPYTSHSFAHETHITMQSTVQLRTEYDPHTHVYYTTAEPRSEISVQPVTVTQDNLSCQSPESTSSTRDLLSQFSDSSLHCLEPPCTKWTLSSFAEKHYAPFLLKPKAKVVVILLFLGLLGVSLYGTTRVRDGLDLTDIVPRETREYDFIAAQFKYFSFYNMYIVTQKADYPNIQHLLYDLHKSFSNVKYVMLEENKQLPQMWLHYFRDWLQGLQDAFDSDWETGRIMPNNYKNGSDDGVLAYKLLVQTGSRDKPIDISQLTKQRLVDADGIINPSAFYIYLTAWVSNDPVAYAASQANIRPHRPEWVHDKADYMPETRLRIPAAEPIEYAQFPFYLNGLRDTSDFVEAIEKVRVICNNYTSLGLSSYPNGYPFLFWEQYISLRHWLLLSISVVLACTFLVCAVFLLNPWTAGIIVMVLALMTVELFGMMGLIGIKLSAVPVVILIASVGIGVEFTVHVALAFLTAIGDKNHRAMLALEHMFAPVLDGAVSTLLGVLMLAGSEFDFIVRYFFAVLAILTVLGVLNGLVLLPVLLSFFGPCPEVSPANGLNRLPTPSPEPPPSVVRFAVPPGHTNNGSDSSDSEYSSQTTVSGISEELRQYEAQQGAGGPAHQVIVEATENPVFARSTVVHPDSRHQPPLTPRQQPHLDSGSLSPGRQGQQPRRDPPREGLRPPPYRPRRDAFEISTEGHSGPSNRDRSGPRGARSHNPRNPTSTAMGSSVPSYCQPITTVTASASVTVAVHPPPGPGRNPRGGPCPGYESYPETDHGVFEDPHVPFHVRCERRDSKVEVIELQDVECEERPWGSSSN
Source text: UV photocrosslinking in intact cells, immunoprecipitation and click-biotin detection on PTCH1 (Patched 1) | PTCH1 itself could be photolabeled by 6-azi-20(S)-yne. Labeling of PTCH1 by 6-azi-20(S)-yne was diminished by SHH

hSMOΔC = biological target: T2, hSMOΔC (Homo sapiens, UniProt Q99835); assay: SEC; fluorescence-detection size exclusion chromatography (FSEC); purified hSMOΔC variants and Nb8-mVenus incubated 1 hour in 200 μl, no added ligands; Superose 6 Increase 3.2/300 in 10 mM Hepes pH 7.5, 150 mM NaCl, 0.02% GDN, 0.002% CHS; mVenus fluorescence followed; settings: both partners purified
T2 construct: Smoothened (SMO), human, UniProt Q99835, amino acid residues 32 to 555, lacks the disordered C-terminal cytoplasmic tail; Purified in detergent (GDN/CHS); Cloned into pHR-CMV-TetO2 (Addgene plasmid no. 113883) with a 3C-protease cleavable mVenus-1D4 tag; called nonfluorescent in the FSEC assay; also called human Smoothened lacking its C-terminal cytoplasmic tail; hSMO∆C; not shown: HA, …
T2 sequence (Q99835 32-555, stated change not applied): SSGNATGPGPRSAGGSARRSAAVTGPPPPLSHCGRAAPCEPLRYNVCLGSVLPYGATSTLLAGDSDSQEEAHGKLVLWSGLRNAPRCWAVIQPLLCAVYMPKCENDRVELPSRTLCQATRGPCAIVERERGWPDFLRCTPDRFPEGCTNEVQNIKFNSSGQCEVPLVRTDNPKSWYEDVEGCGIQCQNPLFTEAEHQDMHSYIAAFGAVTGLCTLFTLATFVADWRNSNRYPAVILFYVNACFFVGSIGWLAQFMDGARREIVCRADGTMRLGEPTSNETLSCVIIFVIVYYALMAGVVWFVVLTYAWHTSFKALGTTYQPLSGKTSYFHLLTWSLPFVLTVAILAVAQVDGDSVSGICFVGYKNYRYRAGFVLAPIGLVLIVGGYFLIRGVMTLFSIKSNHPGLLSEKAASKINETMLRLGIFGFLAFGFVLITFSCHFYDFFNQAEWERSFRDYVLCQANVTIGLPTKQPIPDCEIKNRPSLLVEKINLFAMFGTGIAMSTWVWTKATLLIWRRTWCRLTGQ

hSMOΔC-ΔCRD = biological target: T3, hSMOΔC-ΔCRD (Homo sapiens, UniProt Q99835); assay: as above; settings: both partners purified
T3 construct: Smoothened (SMO), human, UniProt Q99835, amino acid residues 190 to 555, lacks the cysteine-rich domain and the C-terminal cytoplasmic tail; Purified in detergent (GDN/CHS); also called hSMOΔC lacking the CRD; not shown: mVenus, C-terminal, cleaved; 1D4, C-terminal, cleaved
T3 sequence (Q99835 190-555, stated change not applied): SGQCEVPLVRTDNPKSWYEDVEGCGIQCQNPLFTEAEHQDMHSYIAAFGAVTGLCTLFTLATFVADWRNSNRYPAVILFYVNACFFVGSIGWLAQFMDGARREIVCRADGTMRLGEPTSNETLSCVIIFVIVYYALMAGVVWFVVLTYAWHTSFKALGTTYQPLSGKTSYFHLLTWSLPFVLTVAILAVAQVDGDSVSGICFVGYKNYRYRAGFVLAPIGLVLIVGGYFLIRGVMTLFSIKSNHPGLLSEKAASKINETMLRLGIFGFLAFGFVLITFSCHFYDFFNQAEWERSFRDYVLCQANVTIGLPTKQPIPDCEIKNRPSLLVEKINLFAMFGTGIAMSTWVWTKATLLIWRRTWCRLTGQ

Row | binding result (hSMOΔC) | binding result (hSMOΔC-ΔCRD) | Molecule | UV photocrosslinking in intact cells, immunoprecipitation and click-biotin detec (PTCH1 (Patched 1))
1 | – | – | C#CCC[C@](C)(O)[C@H]1CC[C@H]2[C@@H]3CC4(N=N4)[C@H]4C[C@@H](O)CC[C@]4(C)[C@H]3CC[C@@]21C [6-azi-20(S)-yne] | PTCH1 itself could be photolabeled by 6-azi-20(S)-yne. Labeling of PTCH1 by 6-azi-20(S)-yne was diminished by SHH
2 | binds | binds | Nb8-mVenus (VHH, Fused at its C terminus to a HRV3C-mVenus-12His fragment (HRV3C protease site between Nb8 and mVenus); the only Nb8 construct described is this one; also called active-conformation specific nanobody Nb8; active-state selective Nb8; not shown: mVenus, C-terminal, kept; 12His, C-terminal, kept) VHH: QVQLQESGGGLVQAGGSLRLSCAASGYIFSSYAMGWYRQAPGKEREFVATIGWGTITYYADSVKGRFTISRDNAKNTVYLQMNSLKPEDTAVYYCAAQDLLYYSFPGDHAYWGQGTQVTVSS | –
